Measured values published in a protein production outcome set (Wang et al. 2014).

Assay: label from the status in PepcDB records

Sequence | protein production
MLTNIERAKLQLIDETNDMVIITKAEPLDAPNGPEVVWVNKAFENISKYKANEIIGQTPRILQGKETNQNTLKMIKEALKAQTNINVDLLNYTKDGTPYWISFSIVYLRDGQGNLCYLGAIEKDITALKNLNFKLSEKAKTDPLTNVYNQENFFIAGNEAIKNFHQNQEAVGLLFFDVDDFKGINDTQGHIYGDMILKKVAQESLKLVRKTDNVFRYGGDEFAIIFSGIDVKILERKAQQLQKKLAKSHISVSIGGTISIQSDKSINTLLARADEALYYVKANKKGLFFIAE | failed
MSQFAINIMFVGGSFLLYIAIAVWAKAGSTSDFYVAGGGVHPITNGAAIGADWMSAASFISMAGLIAAGGYANSTFLMGWTGGYVLLAMLLAPYLRKFGKFTVPEFIGDRYYSANARLVAVICLIVASVTYVIGQMAGAGVAFSRFLEVDATTGLIIAAVVVFVYAVLGGMKGITYTQVAQYCVLIVAYTIPAVFISIQLTGNPIPGLGMFSTHTDSGLPLLEKLNQVITDLGFNEYTADVDNKLNMVLFTLSLMIGTAGLPHVIIRFFTVPKVADARWSGGWALVFIALLYLTAPAVASMARLNLMTTIYPDGTQAAPIEYDERPNWVKEWEVTGLIQFTDKNEDGRIQLYNDVPAFEAEAQARGWNGNELVVNRDILVLANPEIANLPGWVIGLIAAGGLAAALSTAAGLLLAISSAVSHDLIKGRFNPSISDKGELMAARISMAVAIVVATYLGANPPGFAAQVVALAFGIAAASLFPALMMGIFSKRVNNVGATLGMLSGLLFTLIYIFVYKGWLFIPGTNNLPDTPENWVLGISPLSIGAVGALVNFAVAFAVSKATAEPPVEIQELVESVRYPRGAGTAQDH | failed
MELMKKFTSYTCSPIFVVVACAICLLVGFSINSSIIEIFASVMGIINVWLLSREKVSNFIFGIITVVAYLYIYYNTGLYALAVLACFQVGFNIFGWYYWVKNSDQEDNVVTSGLTKKGQILWTIIILAAWAVWGYVEINILHAQNAILDSLTAVLGLVAQYWLSKKLYENWILWILSNILFIIIYILNGYYVMLILVAIQLILSISGLLEWYASFKEQGENKLTL | failed
MSKDLLFWLTILLVLISGYLSYRKKRIESLTTAGLAGGFALSFMLYEKFPVLFSFLLGFIATFAFEWTRKR | failed
MAKALEQPFDVANIPGPKMATLLEKGKPVANMIKKAKRPLLIVGPDMTDEMFERVKKFVEKDITVVATGSAITRFIDAGLGEKVNYAVLHELTQFLLDPDWKGFDGQGNYDLVLMLGSIYYHGSQMLAAIKNFAPHIRALAIDRYYHPNADMSFGNLWKKEEDYLKLLDEILAEL | not failed
MSTDLAEQPFKFDDVFMQYYPCIYNFIRWLIQDEDCAQDLAQETFLRAFVNLGTRSEHNLSPWLHTIARNLCHDYWRKNKRRGGRELLLQDAFECEDESSKPLAAIENKETAKQIYKILNLLKSEQRTALLLREIEGLSYDDAARVMGISVSAYTSLLNRARNKFIKLIMTPYTKINKGLFTPKEYTVLYRWFGIDAWPEDPEQEIVHKAKHYFDNSALSFDEFRNSLYPFHLDQAILNRVLNKDPQIIGDFGSGTGQFTLKAASSVNLEKTYAFDISPKMVDFSQQRFKREGLRHIQCLPADLNSIPLESETLDIGYCLVVLHHLYDPGKAIKEMTRTLKPGGQLIIGDFGSHNYNLFTKNNKDLWSGFSPDQMTKWFNEAGLENIDIREEKDCIFKSTTQAGELVKIPLLMSSGIKRA | failed
MAGEQIKPVASGLLVLNFCMYVIVLGIGGWAMNRAIDHGFEVGPNLELPAHFSPIYFPMGNAATGFFVIFALLAGVVGAASTISGLSHIRSWTVGSLPAAATAATIAWTLTVLAMGFAWKEIELQGRNAKLRTMEAFLIILSVTQLIYIAAVHGVRRP | failed
MTLSITSNFDAGAIDVVSCERADAIRLRVRGDNRSEFAQWFYFRLTGARGERCVMTFENANDCAYPAGWRDYRAVASYDRVNWFRVPTSYDGQMLTIDHTPEFDSIHYAYFEPYSEERHSEFLGAVQQMPQASVVELGRTVEGRPMSLVVLGTPDEAGAAKKKVWIIARQHPGESMAEWFIEGLVKRLVGWGDWSGDPVARKLYDHATFYIVPNMNPDGSVHGNLRTNAAGANLNREWMEPDAERSPEVLVVRDAIHAIGCDLFFDIHGDEDLPYVFAAGSEMLPGFTEQQRVEQSAFIDSFKRASPDFQDEHGYPPGKYREDAFKLASKYIGHRFGCLSLTLEMPFKDNANLPDEHIGWNGARSASLGAAMLGAILEHVRAFA | not failed
MTVDSNTSSGRGNDPEQIDLIELLLQLWRGKMTIIVAVIIAILLAVGYLMIAKEKWTSTAIITQPDAAQVATYTNALNVLYGGNAPKISEVQANFISRFSSAFSALSEVLDNQKEREKLTIEQSVKGQALPLSVSYVSTTAEGAQRRLAEYIQQVDEEVAKELEVDLKDNITLQTKTLQESLETQEVVAQEQKDLRIKQIEEALRYADEAKITQPQIQQTQDVTQDTMFLLGSDALKSMIQNEATRPLVFSPAYYQTKQTLLDIKNLKVTADTVHVYRYVMKPTLPVRRDSPKTAITLVLAVLLGGMIGAGIVLGRNALRSYKPKAL | not failed
MDPIESVEYNGFETSNGNVDHGWKKVVYPKRHRKQKQADQATANGGKTVASNGTVANGGDNVFRSLEEQAEDRRRRILAAKMTAIDSDDDGVVRSKHRSNGYGDDGYDFDGSDDEIATLKVEEVKKPKPKKEKKPKVSLPEAASKIDPLNLEAFLVEASESYASQPEIQLMRFADYFGRALSGVSSVQFPWVKMFKESPLSKLIEVPLAHIPEPVYKTSVDWINHRPIEALGAFVLWAFDCILTDLAAQQGGAKGGKKGGQQTTSKSQVAIFVALAMVLRRKPDALTNVLPTLRENPKYQGQDKLPVTVWMMAQASQGDIAVGLYSWAHNLLPVVGNKNCNPQSRDLILQLVEKILTNPKARTILVNGAVRKGERLIPPPSFEILLRLTFPASSARVKATERFEAIYPLLKEVALAGAPGSKAMKQVTQQIFTFALKLAGEGNPVLAKEATAIAIWSVTQNFDCCKHWDNLYKENLEASVAVLKKLVEEWKEHSVKLSSSPNDALTLNRTMKSFRLKNEEVITEGGANASLYKEADKSCKTISGRLSRGSGCLKGTAITLVFLAAAGAAAAAVLSSNPEVTNELKNLVDSLELHEYINKYTEVISTALKK | failed
MTIKGRAFPEGFLWGGAVAAHQLEGGYKEGGKGLSTADIMTLGTNERPREITDGVVAGKYYPNHQAIDFYHRYPEDIELFAEMGFKCFRTSIAWTRIFPNGDESEPNEAGLQFYDDLFDECLKNGIQPVVTLAHFEMPYHLVKQYGGWRNRKLIQFYLNFAKVCFERYRDKVTYWMTFNEINNQTNFESDGAMLTDSGIIHQPGENRERWMYQAAHYELVASAAAVQLGHQINPDFQIGCMIAMCPIYPLTAAPADVLFAQRAMQTRFYFADVHCNGTYPQWLRNRFESEHFNLDITAEDLKILQAGTVDYIGFSYYMSFTVKDTGKLAYNEEHDLVKNPYVKASDWGWQVDPVGLRYAMNWFTDRYHLPLFIVENGLGAIDKKTADNQIHDDYRIDYLTDHLRQIKLAVLEDGVDLIGYTPWGCIDLVAASTGQMSKRYGFIYVDENDDGSGSLKRYKKDSFTWFQHVIATNGAEIE | not failed
MEVNKPLPLISIIVPIYNIAEYASECIQSLINQTYKNIEIILVDDGSTDHSPAICDEFAEQDERIKVIHKRNGGLSDARNAGLDVATGEYIGFVDGDDWVDEDMYETLYHLIYEHQADISICTHYTELPNRTKVKYKSKKTKIFSSQKAIATLIEDKIIQNYIWEKLFKRELFTELRFPVGWSFEDIALCYKVFHKARKIVLLQTPKYHYRTRPGSITNSTRNPLKEFQYLQALHEQFQFAAENNIKVRKPKKLVQKTFHFINHIIILPPSSLKKKYINDAFEIAHTYDYLRNWEIGVAATLRRFFVYNYFNAYASVIITYRKYIPARTVKSTTEFFFVRRVATSLATAMRSILYILEHHHHHH | failed
MEFSLIADTVTVCTAKQGIAFGKSLLQRLDLANHISFADSVVDHQSPGGGIVQASAIIFPVDAIAPPPVRSSSYKTIRRIRKKRRTRRVSFGGDGDDAGDFGRFLLEGDFGGSDGPFGFGGGGNDGGGKGWNYGGGGGGFGRDNWDGSSFSSWSDPAMEFVYEVICWIALSNCVHFAFKRIVRIVTDGEREKLNIALSPVC | failed
MHAPDALPGCAPVSPAPGYHGAPAVAGHAPTLGVTASMSSITLFQAPPPEAIQSQIQQMVVDYITDVSAVAIAPSNPLYNLYQYGVGYEVHLYLQAMDGSRGIAVELVVATDPQAPDQVLGFTLYLPVKDDPQACAVAYMAVLQGHRRQGIARQMLQAMLARYPHAELACNVAKVGCFEALGFQLLGARGPQVLMNTRDHGSDGLLAVLDVVTIYQSVEVRQIHTYLLAQHGRKAMLEAEKKRDRQLDQMTRQAQALVRERLGEAALYRSRAPQLIN | failed
ATGTTGGGCATGATCAGGAACTCACTGTTCGGGAGCGTGGAAACGTGGCCTTGGCAGGTTCTAAGCACCGGGGGCAAGGAAGATGTCTCCTATGAGGAAAGAGCCTGTGAAGGGGGCAAGTTTGCTACTGNGGAAGTGACAGACAAGCCAGTGGATGAGGCTCTCCGGGAAGCGATGCCCAAGATCATGAAGTATGTGGGTGGCACCAATGACAAAGGAGTCGGCATGGGTATGACAGTCCCTGTCTCTTTTGCCGTGTTTCCCAATGAAGATGGCTCCCTACAGAAGAAACTGAAAGTCTGGTTCCGGATTCCGAACCAATTTCAAGGCAGCCCACCGGCCCCCAGTGACGAGAGTGTGAAGATCGAGGAACGGGAGGGCATCACTGTCTATTCCACGCAATTTGGAGGCTATGCCAAGGAAGCAGACTATGTTGCTCATGCCACCCAGCTACGGACCACACTGGAGGGCACACCAGCGACCTACCAGGGTGATGTCTACTACTGTGCCGGATATGACCCTCCCATGAAGCCCTATGGACGCCGTAACGAGGTCTGGCTTGTGAAGGCATGA | not failed
MKILLIGASGTLGSAVKERLEKKAEVITAGRHSGDVTVDITNIDSIKKMYEQVGKVDAIVSATGSATFSPLTELTPEKNAVTISSKLGGQINLVLLGIDSLNDKGSFTLTTGIMMEDPIVQGASAAMANGAVTAFAKSAAIEMPRGIRINTVSPNVLEESWDKLEPFFEGFLPVPAAKVARAFEKSVFGAQTGESYQVY | not failed
MKVKLFAIHLFFIVISFGIKYYHLQGPNLIWNMTLALIALDFAYLTSLFKKKILIGLFALAWFFFYPNTFYMLTDIIHMHFVGDVLYNKTNLILYILYVSSILFGFLSGIESFSVIMRKFRISNIFLRWGIIGIVSLVSSFGIHIGRYARLNSWDILTKPQVVINELLAVPSRDSFHFILGFTFLQVLCLIFMDYSAGKKLEK | failed
MGDRVNLEGIVIDIEQTNDQLSFNVTDENESVPVVYDGPMPETMSVGRTVVAKGYYNGSVVEAESLSIRAHEGLEHHHHHH | not failed
MYIIFALLAFSALILVHELGHFIVAKLNGIYVEEFAIGMGPKLFGVKVGETEYNLRILPFGGFVKMLGEEDESDDSGSLNAKTPIQRILVMGAGAFMNYVLALIIFIGLAMSSGFAENKVASVVPNSPAQEIGIEQGDEFLKIDGNKIHTTDDFRMGLALAKGNPVELEIKRGNDVLTKTVQPILNESGMYQVGISYALVEKPTLLQGIKQGFNETRSLVSQSFIALKTIVTGEANLKTDVGGPVTIIKMSGQAAKAGANTLLWFMAFLSVQLAVFNLLPFPALDGGRIFIELIQMIIRKEIPAKYIEAVNTVGFMLLMGLMVLVTIKDIIFPIL | failed
IQHATASLIQTNTDQELLVVDVTPSFASLWLVPNINDFHQRHPNIRVKILTGDGAVKNIHGESDLHVRCLPLSTHYEYSQLLCEETLLLIGNTNLPKLSDNQAISHYPFIPQTTRPQLWEQFKQENDLECPITYHSVGFEHFYLACEAVRMEKGLALLPDFMAQFSILRGDIQHIGNLKLHSGYGYYVVIPNFRLTSRKVALFHDWLKDKLTHHT | not failed
